Assay results as given in the supplement of paper PMC6755084.

B1: F1*; the commonest letter at each place (parent)
chain: GAGACCGCAACTGAAAAGTTGTTATCACTTGTCGTAAGACACTTTGGATGGGTTGAAGTTCTGCACGTAGAAGCAAAAGGC

Variants of: B1
Assay: fraction ligated after 30 min (ligated reads / total reads); higher = more ligase activity
Conditions: with F1*sub RNA substrate (template-directed ligation), 42 °C
Procedure, shortened: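 Templates from an oligo pool were PCR-amplified, transcribed with T7 and gel-purified to give the ribozyme variants. Ligated and unligated products were separated on gel, reverse transcribed using barcoded primers, and read on a MiSeq. A quality filter of ≥20 was applied to core bases. Fraction ligated was taken as ligated reads as a share of all reads per variant.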
GAGACCGCAACTGAAAAGTTGTTATCACTAGTCGTAAGACACCTTGGATGGGTTGAAGTTCTGCACGTAGAAGCAAAAGGC [T30A T43C] was tested, and the fraction ligated was 0.794. Variant GAGACCGCAACTGAAAAGTTGTTATCACTAGTCGTAAGACACATTGGATGGGTTGAAGTTCTGCACGTAGAAGCAAAAGGC [T30A T43A] has a fraction ligated of 0.828. Work on GAGACCGCAACTGAAAAGTTGTTATCACTAGTCGTAAGACACGTTGGATGGGTTGAAGTTCTGCACGTAGAAGCAAAAGGC [T30A T43G] yielded a fraction ligated of 0.8. Variant GAGACCGCAACTGAAAAGTTGTTATCACTCGTCGTAAGACACTTTGGATGGGTTGAAGTTCTGCACGTAGAAGCAAAAGGC [T30C] has a fraction ligated of 0.807. GAGACCGCAACTGAAAAGTTGTTATCACTCGTCGTGAGACACTTTGGATGGGTTGAAGTTCTGCACGTAGAAGCAAAAGGC [T30C A36G] showed a fraction ligated of 0.823. Variant GAGACCGCAACTGAAAAGTTGTTATCACTCGTCGTTAGACACTTTGGATGGGTTGAAGTTCTGCACGTAGAAGCAAAAGGC [T30C A36T] has a fraction ligated of 0.816. Work on GAGACCGCAACTGAAAAGTTGTTATCACTCGTCGTCAGACACTTTGGATGGGTTGAAGTTCTGCACGTAGAAGCAAAAGGC [T30C A36C] yielded a fraction ligated of 0.801. GAGACCGCAACTGAAAAGTTGTTATCACTCGTCGTAAGACACTTTGGTTGGGTTGAAGTTCTGCACGTAGAAGCAAAAGGC [T30C A48T] showed a fraction ligated of 0.346. GAGACCGCAACTGAAAAGTTGTTATCACTCGTCGTAAGACACTTTGGCTGGGTTGAAGTTCTGCACGTAGAAGCAAAAGGC [T30C A48C] was tested, and the fraction ligated was 0.757. GAGACCGCAACTGAAAAGTTGTTATCACTCGTCGTAAGACACTTTGGGTGGGTTGAAGTTCTGCACGTAGAAGCAAAAGGC [T30C A48G] was tested, and the fraction ligated was 0.329. Work on GAGACCGCAACTGAAAAGTTGTTATCACTCGTCGTAAGACACTTTGGATGGGTTGCAGTTCTGCACGTAGAAGCAAAAGGC [T30C A56C] yielded a fraction ligated of 0.763. With GAGACCGCAACTGAAAAGTTGTTATCACTCGTCGTAAGACACTTTGGATGGGTTGTAGTTCTGCACGTAGAAGCAAAAGGC [T30C A56T] the fraction ligated was 0.749. GAGACCGCAACTGAAAAGTTGTTATCACTCGTCGTAAGACACTTTGGATGGGTTGGAGTTCTGCACGTAGAAGCAAAAGGC [T30C A56G] gave a fraction ligated of 0.764. GAGACCGCAACTGAAAAGTTGTTATCACTAGTCGTAAGACACTTGGGATGGGTTGAAGTTCTGCACGTAGAAGCAAAAGGC [T30A T45G] gave a fraction ligated of 0.211. With GAGACCGCAACTGAAAAGTTGTTATCACTAGTCGTAAGACACTTAGGATGGGTTGAAGTTCTGCACGTAGAAGCAAAAGGC [T30A T45A] the fraction ligated was 0.604. GAGACCGCAACTGAAAAGTTGTTATCACTAGTCGTAAGACACTTCGGATGGGTTGAAGTTCTGCACGTAGAAGCAAAAGGC [T30A T45C] was tested, and the fraction ligated was 0.746. GAGACCGCAACTGAAAAGTTGTTATCACTCGTCGTAAGCCACTTTGGATGGGTTGAAGTTCTGCACGTAGAAGCAAAAGGC [T30C A39C] was tested, and the fraction ligated was 0.765. GAGACCGCAACTGAAAAGTTGTTATCACTCGTCGTAAGTCACTTTGGATGGGTTGAAGTTCTGCACGTAGAAGCAAAAGGC [T30C A39T] gave a fraction ligated of 0.764. For GAGACCGCAACTGAAAAGTTGTTATCACTCGTCGTAAGGCACTTTGGATGGGTTGAAGTTCTGCACGTAGAAGCAAAAGGC [T30C A39G], the fraction ligated was 0.782. In the case of GAGACCGCAACTGAAAAGTTGTTATCACTAGTCGTAAGACACTCTGGATGGGTTGAAGTTCTGCACGTAGAAGCAAAAGGC [T30A T44C], the fraction ligated is reported as 0.828. With GAGACCGCAACTGAAAAGTTGTTATCACTAGTCGTAAGACACTGTGGATGGGTTGAAGTTCTGCACGTAGAAGCAAAAGGC [T30A T44G] the fraction ligated was 0.825. GAGACCGCAACTGAAAAGTTGTTATCACTAGTCGTAAGACACTATGGATGGGTTGAAGTTCTGCACGTAGAAGCAAAAGGC [T30A T44A] gave a fraction ligated of 0.855. Variant GAGACCGCAACTGAAAAGTTGTTATCACTCGTCGTAAGACGCTTTGGATGGGTTGAAGTTCTGCACGTAGAAGCAAAAGGC [T30C A41G] has a fraction ligated of 0.828. GAGACCGCAACTGAAAAGTTGTTATCACTCGTCGTAAGACCCTTTGGATGGGTTGAAGTTCTGCACGTAGAAGCAAAAGGC [T30C A41C] gave a fraction ligated of 0.752. In the case of GAGACCGCAACTGAAAAGTTGTTATCACTCGTCGTAAGACTCTTTGGATGGGTTGAAGTTCTGCACGTAGAAGCAAAAGGC [T30C A41T], the fraction ligated is reported as 0.805. GAGACCGCAACTGAAAAGTTGTTATCACTCGTCGTAGGACACTTTGGATGGGTTGAAGTTCTGCACGTAGAAGCAAAAGGC [T30C A37G] was tested, and the fraction ligated was 0.83. GAGACCGCAACTGAAAAGTTGTTATCACTCGTCGTATGACACTTTGGATGGGTTGAAGTTCTGCACGTAGAAGCAAAAGGC [T30C A37T] showed a fraction ligated of 0.805. With GAGACCGCAACTGAAAAGTTGTTATCACTCGTCGTACGACACTTTGGATGGGTTGAAGTTCTGCACGTAGAAGCAAAAGGC [T30C A37C] the fraction ligated was 0.794. For GAGACCGCAACTGAAAAGTTGTTATCACTAGTCGGAAGACACTTTGGATGGGTTGAAGTTCTGCACGTAGAAGCAAAAGGC [T30A T35G], the fraction ligated was 0.827. In the case of GAGACCGCAACTGAAAAGTTGTTATCACTCGTCGTAAGACACTTTGGATGGGTTGAGGTTCTGCACGTAGAAGCAAAAGGC [T30C A57G], the fraction ligated is reported as 0.818. With GAGACCGCAACTGAAAAGTTGTTATCACTCGTCGTAAGACACTTTGGATGGGTTGACGTTCTGCACGTAGAAGCAAAAGGC [T30C A57C] the fraction ligated was 0.777. Variant GAGACCGCAACTGAAAAGTTGTTATCACTAGTCGTAAGACACTTTGGACGGGTTGAAGTTCTGCACGTAGAAGCAAAAGGC [T30A T49C] has a fraction ligated of 0.467. Work on GAGACCGCAACTGAAAAGTTGTTATCACTAGTCGTAAGACACTTTGGAGGGGTTGAAGTTCTGCACGTAGAAGCAAAAGGC [T30A T49G] yielded a fraction ligated of 0.754. GAGACCGCAACTGAAAAGTTGTTATCACTAGTCGTAAGACACTTTGGAAGGGTTGAAGTTCTGCACGTAGAAGCAAAAGGC [T30A T49A] showed a fraction ligated of 0.694.
